According to PMC4911334:

Biological target: minimal functional rat TRPV1 construct, tetramer reconstituted in lipid nanodisc (rat) (UniProt O35433)
Assay: cryo-EM structure

Sequence of UniProt O35433 (O35433 whole entry): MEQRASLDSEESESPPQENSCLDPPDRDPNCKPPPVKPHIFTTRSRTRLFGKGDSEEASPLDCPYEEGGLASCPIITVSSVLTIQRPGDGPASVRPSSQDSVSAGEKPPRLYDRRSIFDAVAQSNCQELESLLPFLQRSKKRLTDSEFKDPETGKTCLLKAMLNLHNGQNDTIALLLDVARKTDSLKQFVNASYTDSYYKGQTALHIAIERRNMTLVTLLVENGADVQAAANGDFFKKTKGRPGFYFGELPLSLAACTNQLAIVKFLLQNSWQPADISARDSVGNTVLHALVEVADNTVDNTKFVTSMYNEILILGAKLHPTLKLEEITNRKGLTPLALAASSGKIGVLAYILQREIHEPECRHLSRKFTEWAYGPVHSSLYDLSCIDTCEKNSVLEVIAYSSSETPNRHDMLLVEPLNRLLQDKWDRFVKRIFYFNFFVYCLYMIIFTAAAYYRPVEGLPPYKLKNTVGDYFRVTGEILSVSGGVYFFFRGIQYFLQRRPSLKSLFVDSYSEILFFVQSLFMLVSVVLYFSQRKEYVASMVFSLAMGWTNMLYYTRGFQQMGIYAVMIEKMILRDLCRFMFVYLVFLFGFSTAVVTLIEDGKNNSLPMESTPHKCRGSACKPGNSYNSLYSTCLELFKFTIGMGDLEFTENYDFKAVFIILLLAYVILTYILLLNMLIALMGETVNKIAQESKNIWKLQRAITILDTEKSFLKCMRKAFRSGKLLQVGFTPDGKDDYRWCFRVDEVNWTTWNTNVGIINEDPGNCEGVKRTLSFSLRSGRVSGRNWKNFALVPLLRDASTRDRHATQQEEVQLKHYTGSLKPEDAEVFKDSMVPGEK

B1: double-knot toxin (DkTx) (peptide)
chain: DCAKEGEVCSWGKKCCDLDNFYCPMEFIPHCKKYKPYVPVTTNCAKEGEVCGWGSKCCHGLDCPLAFIPYCEKYRGRND
  stoichiometry N (DkTx per TRPV1 tetramer): 2
